From paper doi:10.1101/2025.11.23.690026, “A systematic interactome of SET1C expands its functional landscape and identifies candidate regulatory connections” (bioRxiv, 2025)

Target: T1, reconstituted SET1C (S. cerevisiae, UniProt P38827 1-1080; P39706 1-426; P36104 1-329; P38123 1-315; P43132 1-505; Q03323 …)
T1 construct: Set1, S. cerevisiae (FLAG-Set1); Swd1, untagged subunit; Swd2, untagged subunit; Swd3, untagged subunit; Bre2, untagged subunit; Sdc1, untagged subunit; Spp1, untagged subunit; Shg1, untagged subunit; also called full-length SET1C; purified SET1C; source: Sf9, coinfected with baculoviruses, purified (M2 agarose); copies: + + + + + + +
Test: pull-down; GST-tagged Snf2 fragments (250 nM) with SET1C or C762SET1C (25 nM) on glutathione-Sepharose 4B, 0.2 mg/ml BSA, 20 mM Tris-Cl pH 7.9, 150 mM NaCl, 0.1% NP-40, 4 C, 3 hours; immunoblot
Conditions: both partners purified

B1: GST-Snf2C-AT-hook (domain or fragment, S. cerevisiae, UniProt P22082 1384-1547, looked up)
chain: ARKQRTKKEDKSEAIDGNGEIKGENIDADNDGPRINNISAEDRADTDLAMNDDDFLSKKRKAGRPRGRPKKVKLEGSENSEPPALESSPVTGDNSPSEDFMDIPKPRTAGKTSVKSARTSTRGRGRGRGRGRGRGRGRGRPPKARNGLDYVRTPAAATSPIDIR
notes: Snf2, S. cerevisiae, AT-hook region 1384-1547; also called Snf2-AT-hook; GST-Snf2-AT-hook; source: recombinant, purified GST fusion (E. coli BL21 by the general methods)
  binding result: binds
